Patent US20250377350A1

Biological target: NY-ESO-1 157-165 peptide … presented on HLA-A*0201 (human)
Test: cell-based or functional assay

TCR1G4 (specific for the NY-ESO-1 157-165 … antigen), displayed on TnT cells
mRuby2 (STAT5-mRuby2 reporter) expression in peptide-pulsed ACDC-HLA cells after co-culture with TnT-TCR1G4 cells: 29% | mRuby2+ cells of the monoclonal ACDC-HLA (A*0201) line (Clone 3, …-pulsed) after co-culture with TnT-TCR1G4 cells: 46.7%
